We go through five molecules from patent US20250263490A1 (VIB VZW, published 2025).

The chains are these.
B1: anti-CI-M6PR VHH1 (VHH)
VHH: QVQLQESGGGLVQPGGSLRLSCVASGFTFDRYWMNWLRQIPGKEIEWVSTINTGGTGTYYDDSVKGRFSISRDDAKNTLYLTMNSLKTEDTAVYYCARGATYYRGNSAIRGQGTQVTVSS
notes: His6-tagged; made in Pichia pastoris, later also in E. coli WK6
B2: anti-CI-M6PR VHH10 (VHH)
VHH: QVQLQESGGGSVQAGGSLRLSCAPAGRTFSRIRMGWFRQAPGKEREFVAAISSGGLSYYADSMKGRFTISRDNAKNTVLLQMNSLEPDDTAVYYCAAVLNDYIDDYVARNPTLYDYWGQGTQVTVSS
notes: His6-tagged; made in Pichia pastoris
B3: anti-CI-M6PR VHH11 (VHH)
VHH: QVQLQESGGGLVQAGDSLKLSCTASGPTFSEITGGWFRQVPGKEREFVASISSTGITTYYTDSVKGRFTVSRDNAKNTMYLQMNSLKPEDTGVYYCAARSTSRSIAITVGYDYWGQGTQVTVSS
notes: as for B2
B4: anti-CI-M6PR VHH8 (VHH)
VHH: QVQLQESGGGLVQAGGSLRLSCEASGRTFNTYNWGWFRQAPGKEREFVAAIRWSSSKTSYADSVKGRFTISRDNAKNTIYLQMNSLKPEDTAVYYCAASIVDFTTNPSHFGSWGQGTQVTVSS
notes: His6-tagged (Pichia pastoris)
B5: anti-CI-M6PR VHH7 (VHH)
VHH: QVQLQESGGGLVQPGGSLRLSCAASGIIFSDNRMDWYRQAPGKQREWVATLASYGWKTYADSVKGRFTISRDNTKNTVYLRMNSLKPEDTAVYYCKASSPVLNDIWGQGTQVTVSS
notes: His6-tagged (Pichia pastoris)

T1 sequence (Q07113 other isoform, or with tags, fused parts or gaps): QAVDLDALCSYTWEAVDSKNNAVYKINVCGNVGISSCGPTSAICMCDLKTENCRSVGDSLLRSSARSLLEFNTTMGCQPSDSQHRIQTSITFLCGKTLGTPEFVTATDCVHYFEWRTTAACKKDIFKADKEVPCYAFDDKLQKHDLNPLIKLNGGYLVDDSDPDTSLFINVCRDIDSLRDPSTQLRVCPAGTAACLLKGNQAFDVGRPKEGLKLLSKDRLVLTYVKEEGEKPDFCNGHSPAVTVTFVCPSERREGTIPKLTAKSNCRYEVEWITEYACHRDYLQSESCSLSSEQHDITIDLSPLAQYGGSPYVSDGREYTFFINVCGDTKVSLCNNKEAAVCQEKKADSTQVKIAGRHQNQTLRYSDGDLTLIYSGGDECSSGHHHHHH

The first experiment concerns the target T1, recombinant mouse domain 1-3His6 of CI-M6PR (mouse, UniProt Q07113 36-418).
T1 construct: Genbank NM_010515.2); Range includes the signal peptide; also called mDom1-3His6; mCI-M6PRD1-D3
Description: ELISA: coated mouse CI-M6PR Domain 1-3His6, serially diluted VHH, anti-VHH-HRP, TMB, Abs 450 nm; sigmoidal regression [table at the right]. On the procedure: FIGS. 5A-5B. Affinity of anti-CI-M6PR VHHs for recombinant mouse CI-M6PR Domain 1-3His₆ determined by ELISA. (FIG. 5A) Measurement for each of the 11 anti-CI-M6PR VHHs in serial dilution binding to the coated mouse antigen. Detection was performed using an anti-VHH antibody coupled to HRP, and measured as the absorbance of the TMB substrate at 450 nm, correlating to the amount of bound VHH as plotted at the Y-axis. The Log₁₀ concentrations of the serially diluted VHHs were plotted at the X-axis.
To evaluate the cross-reactivity of the anti-CI-M6PR nanobodies between the human and mouse CI-M6PR domain 1-3His₆ antigen, ELISA was performed with the eleven serially diluted anti-CI-M6PR nanobodies. […] By performing sigmoidal regression on the derived absorbance curves, half-maximal effective concentration (EC₅₀) values of each VHH were acquired, representing the required concentration to occupy 50% of the coated antigen. As a negative control, GBP was included in the assay.
In general terms: In an ELISA, binding on a coated surface is turned into a signal by an enzyme label.
For the molecule B1, the EC50 was found to be 355 nM.
On the same count and under the same terms, the value for B2 was 1620 nM.
The same measure, in the same setting: the value for B3 was 330 nM; that for B4 was 595 nM.

The target of a further experiment is T2, recombinant human domain 1-3His6 of the cation-independent mannose-6-phosphate receptor (human, UniProt P11717 41-467).
T2 construct: Biotinylated (NHS-PEG4-biotin) for BLI; Glycosylated; also called hDom1-3His6; hCI-M6PRD1-D3
Description: BLI exp 2, dissoc pH 7.4. On the procedure:
(§1) For each of the 11 anti-CI-M6PR VHHs, a biolayer interferometry (BLI) experiment was performed in which the hDom₁₋₃His₆ was biotinylated and coupled to streptavidin biosensor tips. Afterwards, the tips were incubated with serially diluted VHHs during the association phase and dissociation was performed at pH 7.4. Similarly, dissociation was performed at pH 7.0, pH 6.0 and pH 5.0 as well after regeneration of the biosensor tips. […] The anti-CI-M6PR antibody (clone 2G11) and GBP were used as positive and negative controls, respectively.
(§2) Analysis of the binding kinetics was performed using an Octet Red96 (FortéBio) device with Streptavidin SA Biosensor tips (VWR 733-2145). Therefore, 1 mL of human domain₁₋₃His₆ (0.5 mg/mL in 50 mM MES, 150 mM NaCl, pH 6.5) was incubated at room temperature for 30 minutes with EZ-Link™ NHS-PEG4-Biotin (1 mg) (Thermo Fischer A39259) and NaHCO₃ (100 mM). Biotinylated human domain₁₋₃His₆ was purified using a Zeba spin desalting Column™ (7K MWCO, 2 mL, Thermo Fischer 89890) and 1 μg/mL was used for immobilization on the Streptavidin SA Biosensor tips. The loaded tips were dipped into a particular anti-CI-M6PR VHH solution, serially diluted in kinetics buffer (0.2M NaH₂PO₄, 0.1M Na⁺ citrate, 0.01% BSA, 0.002% Tween20, pH 7.4). This was followed by dissociation of the particular anti-CI-M6PR VHH in kinetics buffer of pH 7.4, followed by regeneration in Glycine (10 mM, pH 3) and neutralisation. Same cycle was repeated but the dissociation was performed at pH 7.0, 6.0, 5.0, 4.5 and 4.0. A reference well and reference sensors were subtracted from ligand sensors afterwards and Savitsky-Golay filtering was applied on the data. Fitting of the data was performed using a 1:1 model, grouped per pH of dissociation.
For the molecule B5, the dissociation constant Kd worked out at 9.08 nM, the koff is 0.0118 s⁻¹ and the kon stood at 1.3e+06 M⁻¹ s⁻¹.
For the molecule B1, the Kd was about 11.2 nM, the koff amounted to 0.0099 s⁻¹ and the kon was 1e+06 M⁻¹ s⁻¹.
Take B2: the Kd is 46.5 nM, the koff was found to be 0.00177 s⁻¹ and the kon is 38100 M⁻¹ s⁻¹.
The corresponding values for B3 are 51 nM, 0.00391 s⁻¹ and 76700 M⁻¹ s⁻¹.
Turning to B4, the koff came to 0.00065 s⁻¹.

The target of the next experiment is T2, recombinant human domain 1-3His6 of the …. Description: BLI exp 2, dissoc pH 7.
For B5, the koff was 0.013 s⁻¹ and the association rate constant (kon) is 130000 M⁻¹ s⁻¹.
As to B1, the koff is 0.0021 s⁻¹ and the kon was found to be 1.5e+06 M⁻¹ s⁻¹.
Consider B2, for which the koff was 0.00148 s⁻¹ and the kon was 99300 M⁻¹ s⁻¹.
The corresponding values for B3 are 0.00394 s⁻¹ and 194000 M⁻¹ s⁻¹.
Taken in the same sequence, the figures for B4 were 0.000976 s⁻¹ and 404000 M⁻¹ s⁻¹.

The target is the same in the next experiment. Briefly: BLI at pH 7.4, 2nd of 2 repeats.
On to B5, for which the Kd is 9.08 nM, the koff turned out to be 0.0118 s⁻¹ and the kon turned out to be 1.3e+06 M⁻¹ s⁻¹.
Taken in the same sequence, the figures for B1 were about 11.2 nM, 0.0099 s⁻¹ and 1e+06 M⁻¹ s⁻¹.
For the molecule B2, the Kd came out at 46.5 nM, the koff was determined as 0.00177 s⁻¹ and the kon came to 38100 M⁻¹ s⁻¹.
The corresponding values for B3 are 51 nM, 0.00391 s⁻¹ and 76700 M⁻¹ s⁻¹.
Take B4: the koff was determined as 0.00065 s⁻¹.

For another experiment the target is unchanged. Description: BLI exp 1, dissoc pH 7.4. On the procedure:
as §1, §2
With B5, the dissociation constant Kd was 10.8 nM, the koff came to 0.00999 s⁻¹ and the kon was 924000 M⁻¹ s⁻¹.
Taken in the same sequence, the figures for B1 were 7.44 nM, about 0.00606 s⁻¹ and 814000 M⁻¹ s⁻¹.
The corresponding values for B2 are 46.3 nM, 0.00177 s⁻¹ and 38100 M⁻¹ s⁻¹.
The corresponding values for B3 are 41.4 nM, 0.00317 s⁻¹ and 76700 M⁻¹ s⁻¹.
Turning to B4, the Kd was 1.69 nM, the koff came out at 0.000787 s⁻¹ and the kon stood at 465000 M⁻¹ s⁻¹.

The next experiment shares this target. Description: BLI exp 2, dissoc pH 5. On the procedure: as §1
(§3) Analysis of the binding kinetics was performed using an Octet Red96 (FortéBio) device with Streptavidin SA Biosensor tips (VWR, 733-2145). To this end, 1 mL of hCI-M6PR_D1-D3 (0.5 mg/mL in 50 mM MES, 150 mM NaCl, pH 6.5) was incubated at room temperature for 30 minutes with a two-fold molar excesses of EZ-Link™ NHS-PEG₄-Biotin (Thermo Fischer, A39259) and NaHCO₃ (100 mM, pH 8.3). Biotinylated hCIMPR_D1-D3 was purified using a Zeba spin desalting column (Thermo Fischer, 89890) and protein concentration was calculated by measuring the absorbance at 280 nm (extinction coefficient 50320 M¹ cm⁻¹). Two-fold biotin-labelled antigen was loaded on the tips (2.5 μg/mL) and subsequently dipped into a particular anti-CI-M6PR VHH-containing solution (ranging from 0-100 nM). Serial VHH dilutions were made in kinetics buffer (0.2 M Na₂HPO₄, 0.1 M Na⁺ citrate, 0.01% BSA, 0.002% Tween20, pH 7.4). After association (100 sec), dissociation was conducted (500 sec) for each anti-CI-M6PR VHH in the kinetics buffer, followed by biosensor regeneration in glycine (10 mM, pH 3) and neutralisation. The same cycle was repeated with dissociation performed in kinetics buffer of pH 7.0, 6.5, 6.0, 5.5, and 5.0.
(§4) A reference well and reference sensors were subtracted from ligand sensors afterwards and Savitsky-Golay filtering was applied on the data. Fitting of the data was performed using a 1:1 model, grouped per dissociation pH.
Regarding B5, the koff amounted to 0.055 s⁻¹ and the kon is 55000 M⁻¹ s⁻¹.
With B1, the koff was found to be 0.072 s⁻¹.
B2: the koff turned out to be 0.0106 s⁻¹ and the kon came to 91100 M⁻¹ s⁻¹.
Taken in the same sequence, the figures for B3 were 0.0253 s⁻¹ and 225000 M⁻¹ s⁻¹.
Taken in the same sequence, the figures for B4 were 0.084 s⁻¹ and 2.4e+06 M⁻¹ s⁻¹.

The next experiment has the same target. Briefly: BLI exp 2, dissoc pH 5.5. On the procedure:
as §1, §3, §4
Consider B5, for which the koff was determined as 0.027 s⁻¹ and the kon was determined as 35000 M⁻¹ s⁻¹.
For B1, the koff came to 0.04 s⁻¹ and the kon is 47000 M⁻¹ s⁻¹.
The corresponding values for B4 are 0.0025 s⁻¹ and 1.9e+08 M⁻¹ s⁻¹.

Broadly, the EC50 is the concentration at which the effect is half-maximal. For orientation: Kd means the free concentration of one partner at which half of the binding sites on the other are occupied at equilibrium, for simple one-to-one binding. The term koff denotes the first-order rate constant of dissociation. As a reminder, the kon is the rate constant with which the complex forms.
